Assay [1] deals with hGW182 ABD (455–841), tandem tryptophans of motif-2 and the hook mutated to alanine (human) (UniProt Q8NDV7). Put plainly: pull-down.
Assay [2] has as its target hGW182 ABD (455–841), tandem tryptophans of motif-1 and the hook mutated to alanine (human) (UniProt Q8NDV7). In words: pull-down.
In assay [3] the target is hGW182 ABD (455–841) with motif-2 and the hook deleted (human) (UniProt Q8NDV7). Put plainly: SEC. Background: In gel filtration, larger molecules generally elute earlier.
Assay [4] concerns the target hGW182 ABD (455–841) with motif-1 deleted (human) (UniProt Q8NDV7). Put plainly: SEC.
Assay [5] has as its target hGW182 ABD (455–841) with motif-1 and motif-2 deleted (human) (UniProt Q8NDV7). Put plainly: SEC.
Assay [6] deals with hGW182 ABD (455–841) with the hook deleted (human) (UniProt Q8NDV7). In words: SEC.
For assay [7], the target named is hGW182 ABD (455–841) with motif-1 and the hook deleted (human) (UniProt Q8NDV7). Put plainly: SEC.

What is called stoichiometry N is the number of molecules, sites or subunits per partner or assembly.

In the case of “human Argonaute-2 (from UniProt Q9UKV8 1-859) (natural protein)”, the percent reduction of binding against the wild-type ABD in assay [1] and in assay [2] was under 10% each time. The stoichiometry N in assay [3] is 1; in assay [4], 2; in assay [5], 1; in assay [6], 2; in assay [7], 1.

The record behind these values is article PMC5915679.
